Test results: patent US20130115677

Tests used:
Experiment in all cases: cleavage_in_vitro
[1] = tested on: T1, BsmBI-HF N185Y/R232A (Bacillus stearothermophilus); conditions: NEB4, 55 C, Mg2+
T1 sequence: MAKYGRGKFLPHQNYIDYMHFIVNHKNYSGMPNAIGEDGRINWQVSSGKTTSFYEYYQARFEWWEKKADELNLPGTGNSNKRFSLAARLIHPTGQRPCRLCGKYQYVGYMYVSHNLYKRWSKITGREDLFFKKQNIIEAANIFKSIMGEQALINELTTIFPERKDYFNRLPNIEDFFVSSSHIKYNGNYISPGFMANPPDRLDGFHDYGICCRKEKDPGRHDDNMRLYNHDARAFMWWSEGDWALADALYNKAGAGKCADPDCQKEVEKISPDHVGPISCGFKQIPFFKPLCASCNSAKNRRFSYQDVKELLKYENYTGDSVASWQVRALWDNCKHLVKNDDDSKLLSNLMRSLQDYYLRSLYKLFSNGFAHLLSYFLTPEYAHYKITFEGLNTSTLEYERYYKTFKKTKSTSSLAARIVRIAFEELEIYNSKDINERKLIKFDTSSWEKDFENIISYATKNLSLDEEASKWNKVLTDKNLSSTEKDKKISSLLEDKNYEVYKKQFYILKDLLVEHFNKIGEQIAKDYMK

[2] = tested on: T2, BspQI (Bacillus sphaericus); conditions: NEB4, 50 C, Mg2+
T2 sequence: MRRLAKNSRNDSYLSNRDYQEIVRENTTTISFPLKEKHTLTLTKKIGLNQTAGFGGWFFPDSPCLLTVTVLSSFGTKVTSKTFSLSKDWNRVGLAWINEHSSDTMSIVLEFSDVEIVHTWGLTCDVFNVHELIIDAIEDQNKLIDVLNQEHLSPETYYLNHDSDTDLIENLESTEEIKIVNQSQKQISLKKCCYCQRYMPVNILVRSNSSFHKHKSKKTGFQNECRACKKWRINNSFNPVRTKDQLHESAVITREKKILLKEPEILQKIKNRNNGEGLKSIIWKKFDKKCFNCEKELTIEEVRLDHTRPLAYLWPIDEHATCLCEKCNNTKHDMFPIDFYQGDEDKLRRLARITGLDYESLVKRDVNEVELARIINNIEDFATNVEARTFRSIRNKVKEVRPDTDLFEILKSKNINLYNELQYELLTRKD

BstXI = conditions: NEB4, 55 C, Mg2+
[3] = target: EcoRI(K62A) K62A (Escherichia coli RY13) (UniProt P00642); conditions: NEB4, 37 C, Mg2+
[4] = target: T3, HpaI (Haemophilus parainfluenzae) (UniProt P29537); conditions: NEB4, 37 C, Mg2+
T3 sequence: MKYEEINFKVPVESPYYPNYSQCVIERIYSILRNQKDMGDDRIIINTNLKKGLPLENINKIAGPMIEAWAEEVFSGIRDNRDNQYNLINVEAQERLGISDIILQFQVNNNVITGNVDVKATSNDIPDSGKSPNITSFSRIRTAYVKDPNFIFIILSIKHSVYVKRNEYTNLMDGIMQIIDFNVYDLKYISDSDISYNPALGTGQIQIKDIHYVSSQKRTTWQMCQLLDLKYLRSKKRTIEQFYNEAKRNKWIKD

[5] = tested on: T4, NcoI-HF A2T/R31A (Nocardia corallina); conditions: NEB4, 37 C, Mg2+
T4 sequence: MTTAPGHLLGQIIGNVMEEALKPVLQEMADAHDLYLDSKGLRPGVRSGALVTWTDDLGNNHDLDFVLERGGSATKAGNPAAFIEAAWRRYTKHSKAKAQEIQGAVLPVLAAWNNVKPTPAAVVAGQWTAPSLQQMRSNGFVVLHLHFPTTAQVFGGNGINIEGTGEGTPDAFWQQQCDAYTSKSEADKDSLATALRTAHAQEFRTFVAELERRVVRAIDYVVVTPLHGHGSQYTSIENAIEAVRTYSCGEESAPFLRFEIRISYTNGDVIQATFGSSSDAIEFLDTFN

[6] = target: T5, PstI (Providencia stuartii 164) (UniProt P00640); conditions: NEB4, 37 C, Mg2+
T5 sequence: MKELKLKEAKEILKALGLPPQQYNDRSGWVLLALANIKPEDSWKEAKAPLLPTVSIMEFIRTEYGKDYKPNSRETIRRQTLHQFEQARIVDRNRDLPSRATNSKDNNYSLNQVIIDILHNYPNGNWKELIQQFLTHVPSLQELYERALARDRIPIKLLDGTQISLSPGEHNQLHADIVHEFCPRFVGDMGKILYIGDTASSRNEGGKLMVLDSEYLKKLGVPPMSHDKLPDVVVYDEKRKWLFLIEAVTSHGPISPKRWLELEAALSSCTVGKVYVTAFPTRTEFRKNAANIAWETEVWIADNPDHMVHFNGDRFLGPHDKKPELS

[7] = tested on: T6, SbfI (Streptomyces species Bf-61?); conditions: NEB4, 37 C, Mg2+
T6 sequence: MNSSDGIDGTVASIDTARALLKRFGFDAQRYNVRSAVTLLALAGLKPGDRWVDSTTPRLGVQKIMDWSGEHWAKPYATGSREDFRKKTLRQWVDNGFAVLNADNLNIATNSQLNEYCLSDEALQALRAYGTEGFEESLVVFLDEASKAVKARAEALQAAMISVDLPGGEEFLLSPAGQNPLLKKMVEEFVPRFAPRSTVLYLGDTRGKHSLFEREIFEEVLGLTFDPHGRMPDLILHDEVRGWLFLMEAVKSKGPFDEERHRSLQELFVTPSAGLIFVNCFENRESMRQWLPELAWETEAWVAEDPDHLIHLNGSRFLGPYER

[8] = tested on: T7, SphI-HF K100A (Streptomyces phaeochromogenes); conditions: NEB4, 37 C, Mg2+
T7 sequence: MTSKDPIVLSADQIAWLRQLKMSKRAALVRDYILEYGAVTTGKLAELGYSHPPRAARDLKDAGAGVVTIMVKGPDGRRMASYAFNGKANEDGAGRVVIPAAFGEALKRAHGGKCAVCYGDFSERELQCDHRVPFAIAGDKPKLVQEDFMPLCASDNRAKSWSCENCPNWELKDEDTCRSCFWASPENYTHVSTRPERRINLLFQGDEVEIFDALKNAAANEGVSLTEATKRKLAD

[9] = tested on: T8, SspI-HF Y98F (Sphaerotilus species); conditions: NEB4, 37 C, Mg2+
T8 sequence: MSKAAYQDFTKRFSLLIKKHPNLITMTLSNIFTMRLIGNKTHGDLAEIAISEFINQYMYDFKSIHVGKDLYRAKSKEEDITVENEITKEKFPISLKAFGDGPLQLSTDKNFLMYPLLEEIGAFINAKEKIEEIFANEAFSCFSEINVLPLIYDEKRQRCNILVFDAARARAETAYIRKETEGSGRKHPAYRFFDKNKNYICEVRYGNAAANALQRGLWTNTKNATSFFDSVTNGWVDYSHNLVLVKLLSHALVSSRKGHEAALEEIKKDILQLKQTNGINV

lambda DNA
activity (fidelity index) [1]: > 500
activity (fidelity index) [2]: 4
activity (fidelity index) (BstXI): 4
activity (fidelity index) [3]: 32000
activity (fidelity index) [4]: 16
activity (fidelity index) [5]: > 64000
activity (fidelity index) [6]: 8
activity (fidelity index) [7]: 8
activity (fidelity index) [8]: 8000
activity (fidelity index) [9]: 500
